Data published in article doi:10.1101/2025.08.17.670746, “Post-transcriptional regulation of meiotic transcripts by the RNA binding protein CDM1 is associated with cytoplasmic condensate assemblies” (bioRxiv, 2025).

Target: the molecule itself
Assay: pull-down; equimolar His6-MBP-CDM1-GFP and TEV-cleaved CDM1-GFP mixed in 20 mM HEPES pH 7.4, 150 mM KCl, 1 mM DTT, room temperature, 2 h; precipitated with anti-His antibody and Protein G beads; blot with anti-GFP

B1: CALLOSE … MICROSPORES1 (CDM1) fused to G3GFP, made in E. coli (His6-MBP-CDM1-GFP and its TEV-cleaved form CDM1-GFP) (natural protein, Arabidopsis thaliana, UniProt Q9C9F5 1-308, looked up)
chain: MENKIAPFSYSGSSAGNSSSGGVVSSSLYSDQLYKSTRNIMQQRQDMVNREALCYTRLHEASLEAEALRLENTELRSMNLRLKNELNSLIRSSIQNRFDHRSPLRMLSNLSIGGNDADEVENQNRTVNRDDVNDKSPTSVMENEDLNRSSLPKSISVRSNGYSKASQGGGGAAAQSGKPRGTVTKPGTCGQVSTTQKVYVRGGGKKEDQEEEIEVEVYNQGMTKTELCNKWQETGTCPYGDHCQFAHGIKELRPVIRHPRYKTEVCRMVLAGDNCPYGHRCHFRHSLSEQEKLVAAGFKPKSSLKLIT
notes: CDM1 (CALLOSE … MICROSPORE1, C3H15), Arabidopsis thaliana, At1G68200; Self-association test with two differently tagged copies: the bait copy kept His6-MBP (His6-MBP-CDM1-GFP); Both copies carry the C-terminal G3GFP, by which they were detected; also called C3H15; His-MBP-CDM1-G3GFP; source: E. coli BL21-Rosetta, purified (His Mag Sepharose Ni beads, dialysed); not shown: His6, N-terminal, kept; …
- binding result: binds
